Source: patent US8835609B2, “Antigen binding sites to non-functional oligomeric P2X7 receptors and methods of use thereof” (Biosceptre International Limited, priority 2009, dated 2014)

What was measured:
Lewis Lung (LL) tumour = test: Lewis Lung (LL) syngeneic xenograft model, lung metastases; type: in vivo, mouse; settings: Day 11
Experimental: (§1) Dosing occurred every 3 days at antibody concentrations of 1 or 10 mg/kg i.v. or with PBS for treatment control or Sorafenib at 5 mL/kg daily as a positive control in the Lewis Lung model. Mice were randomised into equal groups of 10 mice, based on tumour volume on Day 0 of the studies.
(§2) Mice were anaesthetised for blood collection and euthanised by exsanguination via terminal cardiac bleed 48 hours post-final dose, on Days 11 or 14 post-initial treatment.
(§3) The lungs were excised from all mice. Lung surface metastases were counted and were categorised according to size: small (<1 mm), medium (≧1 mm and <3 mm) and large (≧3 mm). Excised lungs were preserved in 10% neutral buffered formalin.
The syngeneic Lewis Lung model was used with additional control groups. Besides the PBS control group of ten mice (Group 1), a positive control group using daily Sorafenib at 5 mL/kg was included (Group 5) along with antibody treatment groups consisting of sheep affinity purified E200-300 polyclonal antibody at 10 mg/kg (Group 2), 2F6-hIgG1 at 1 mg/kg (Group 3) and 2F6-hIgG1 at 10 mg/kg (Group 4).

[1] = target: T1, red blood cells expressing function-capable P2X7 receptor (Mus musculus, UniProt Q9Z1M0); test: Binding to red blood cells in tumour sections; type: in vivo; settings: adjacent red blood cells in Lewis Lung tumour section
T1 construct: from tissue; host or cells: red blood cells in formalin-fixed Lewis Lung tumour sections from antibody-treated mice
T1 sequence (Q9Z1M0 1-595): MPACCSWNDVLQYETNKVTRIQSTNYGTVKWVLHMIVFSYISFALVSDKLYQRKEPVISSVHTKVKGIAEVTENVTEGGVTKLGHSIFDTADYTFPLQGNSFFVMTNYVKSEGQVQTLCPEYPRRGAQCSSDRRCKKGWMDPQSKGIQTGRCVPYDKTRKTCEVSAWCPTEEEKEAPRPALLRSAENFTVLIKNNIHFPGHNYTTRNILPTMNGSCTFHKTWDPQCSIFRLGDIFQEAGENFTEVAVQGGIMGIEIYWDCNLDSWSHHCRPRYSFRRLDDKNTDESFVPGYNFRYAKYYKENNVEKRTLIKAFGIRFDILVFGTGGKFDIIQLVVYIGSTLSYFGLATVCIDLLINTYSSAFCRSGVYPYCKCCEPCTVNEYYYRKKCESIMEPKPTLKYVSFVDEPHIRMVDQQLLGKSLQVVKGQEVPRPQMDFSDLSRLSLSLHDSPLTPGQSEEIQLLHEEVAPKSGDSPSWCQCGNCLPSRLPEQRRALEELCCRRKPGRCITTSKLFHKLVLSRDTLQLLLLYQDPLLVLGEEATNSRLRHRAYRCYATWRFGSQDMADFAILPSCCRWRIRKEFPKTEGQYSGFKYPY
Experimental: Female BALB/c mice inoculated with the orthotopic syngeneic 4T1 murine mammary tumours in their third mammary fat pads or NOD/SCID female mice inoculated with the orthotopic human Hep3b xenograft tumour in their livers were treated intravenously with either a human domain antibody (2-2-1 hFc) directed at a monomeric target (epitope E200 on P2X7) or 2F6-hIgG1 directed at the compound epitope E200-300. All procedures approved by the Animal Ethics Committee at The University of Adelaide (M46-2008). Antibody penetration into the tumours was measured using Jackson Immunosearch goat anti-human antibody on tumour sections that were removed from the mice two days post antibody treatment. The tumours were fixed in 10% neutral buffered formalin for 48 hours, embedded in paraffin, sectioned to 5 um, deparaffinized, and stained for human antibody. The Biocare Mach 4 secondary detection system was used, comprising a specific goat antibody probe followed by a polymer with HRP then stained with DAB.

[2] = tested on: 4T1 mouse breast tumour cells; test: 4T1 syngeneic xenograft model, lung metastases; type: in vivo; set-up: number of lung metastases, % of control / average metastasis volume, % of control / reduction of total metastasis volume / total metastasis volume, % of control: concentration or dose not given beside the values; settings: Day 14
Experimental: Reagents for culture of 4T1 mouse breast tumour cells were obtained from the following suppliers: RPMI 1640 cell culture medium, FCS, Glutamax, HBSS and penicillin-streptomycin from Invitrogen Australia (Mt Waverley, VIC, Australia); and Trypan Blue from Sigma-Aldrich (Castle Hill, NSW, Australia). Matrigel™ was obtained from BD Biosciences (North Ryde, NSW, Australia).
Tumour cells (Passage 2 from working stock) were cultured in RPMI 1640 cell culture medium, supplemented with 10% FCS, 1% Glutamax and 1% penicillin-streptomycin. The cells were harvested by trypsinisation, washed twice in HBSS and counted. The cells were then resuspended in HBSS:Matriger™ (1:1, v/v) to a final concentration of 5×10^7 cells/mL.
as §1, §2, §3

labelling of red blood cells [1]: entirely unlabelled
B1: 2F6 hIgG1: mouse scFv from 2F6 grafted into a human format of type IgG1, expressed in HEK293 cells (antibody, V domains shown)
VH: DVKLVESGGGLVKLGGSLKLSCAASGFTFSSYYMSWVRQTPEKRLELVAAINSNGGSTYYPDTVKGRFTISRDNAKNTLYLQMSSLKSEDTAFYYCTRHYSSRFFDVWGAGTTVTVSS
VL: MADIVMTQSQKFMSTSVGDRVSVTCKASQNVGTNVAWYQQKPGQSPKALIYSASFRYSGVPDRFTGSGSGTDFTLTISNVQSEDLAEFFCQQYNSYPFTFGSGTRLEIK
Mean Lung Surface Mets (Lewis Lung (LL) tumour; antibody 1 mg/kg i.v. every 3 days): 0.9 | Mean Lung Surface Mets (Lewis Lung (LL) tumour; antibody 10 mg/kg i.v. every 3 days): 0.2 | inhibition of lung metastases relative to PBS control (Lewis Lung (LL) tumour; antibody 10 mg/kg): 96% | number of lung metastases ([2]; BALBc mice, i.v. every 3 days): 3.4±0.7 | average metastasis volume [2]: 1.28 mm^3 | average metastasis volume, % of control [2]: 22% | number of lung metastases, % of control [2]: 53% | total metastasis volume [2]: 43 mm^3 | total metastasis volume, % of control [2]: 11.8% | reduction of total metastasis volume ([2]; listed as 2F6-hIgG1): 88% | reduction of total metastasis volume ([2]; listed as 2F6hIgG1): 89%
